Measurements as given in paper PMC5397206.

Biological target: Prp43 (yeast) (UniProt P53131)
Sequence of UniProt P53131 (P53131 whole entry): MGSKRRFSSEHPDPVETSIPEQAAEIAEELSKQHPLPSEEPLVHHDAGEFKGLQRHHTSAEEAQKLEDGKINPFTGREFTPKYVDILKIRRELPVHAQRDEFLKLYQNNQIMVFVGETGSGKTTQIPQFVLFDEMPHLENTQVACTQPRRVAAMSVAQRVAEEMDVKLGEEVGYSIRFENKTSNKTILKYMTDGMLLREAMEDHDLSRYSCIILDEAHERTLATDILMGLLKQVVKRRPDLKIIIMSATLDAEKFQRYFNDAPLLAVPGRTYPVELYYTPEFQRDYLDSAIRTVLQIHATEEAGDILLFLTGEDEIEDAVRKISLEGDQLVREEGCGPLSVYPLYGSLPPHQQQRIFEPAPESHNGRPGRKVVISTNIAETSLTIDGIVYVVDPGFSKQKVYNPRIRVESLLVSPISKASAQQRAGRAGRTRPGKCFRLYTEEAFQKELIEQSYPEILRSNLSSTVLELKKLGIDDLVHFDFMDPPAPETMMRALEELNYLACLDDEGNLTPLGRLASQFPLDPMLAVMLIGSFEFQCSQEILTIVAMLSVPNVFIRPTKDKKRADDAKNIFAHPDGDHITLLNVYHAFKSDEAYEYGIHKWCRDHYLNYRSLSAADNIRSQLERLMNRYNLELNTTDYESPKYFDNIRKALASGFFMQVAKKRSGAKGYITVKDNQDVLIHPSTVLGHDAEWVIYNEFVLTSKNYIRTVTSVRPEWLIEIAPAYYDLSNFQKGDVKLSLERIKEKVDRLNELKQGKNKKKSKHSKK

catalytic efficiency of Prp43 ATPase (kcat/KM), Pfa1FL versus Pfa1GP: 3 fold
B1: Pfa1 full-length (Pfa1FL) (natural protein)
chain: MAKRHSHYQGSRRRHARGSNSKKAGRGNAKGIQGRKIKKKPTPTNSWHNSSIPLGEGDLDDVGADFNPGRAFISPKTIEDYYFGRDAKSRSMKMGGLRPGNRYDSSTDLQAGRAAFRKRPMQFVKAKEVYDPSHNMIQKLRAKNETKNSEEIVEREADVFEEPGKMTSDVEYINNEDSENEDDDSQNSPSTDHSLSSNESKVEDGDLFFVDEEAQQSPDLTKIKRVCIEEIARPREVAIEFDPILTIGKVELSVSEGNESKEISVDVPNKGNKTYHPFAGYISNVLHGMHTSDSDNDELDYEIETENNSEPLYESSASSEVDQGFNYVGQRHNSRADNNLLPSPSPQLTEDIKCLSINGTKTFEGNNDNLPSPASEELEFGFKEEDFVINTNDIVVSNIRMGGVDNSYYLRCYRLLGDYDFHWIDQDLLTDFVVDELGLPEDRLPAYLNFIKNSLIPKIEPAEPTYSDIPISDSSDEGDSYEGDSYEDDEDMASSVVHSDIEEGLDDLIAYTLKHDTERFKTFETKSLETKGKGKKKKLLIDDALALDTETLETLQSKFSKRIETKAKKRKAKEDFIDQENRNSNDMLKKYPYGLHIQNIKDEFESFLSRNNDRLTFPPLDPHGNKTVMKIAKHYNMKSSKIGKANHTSVVVEKIKKTKWSSPNYSLIDQLMRQRPVFMRIDIRRPREEQAAFERTKTIRGKFHVKEGEIVGQNAPEIGNENIGRRMLEKLGWKSGEGLGIQGNKGISEPIFAKIKKNRSGLRHSES
